Series [1] addresses T1, His-Lia3 (Tetrahymena thermophila, UniProt A3F815 1-322).
T1 sequence: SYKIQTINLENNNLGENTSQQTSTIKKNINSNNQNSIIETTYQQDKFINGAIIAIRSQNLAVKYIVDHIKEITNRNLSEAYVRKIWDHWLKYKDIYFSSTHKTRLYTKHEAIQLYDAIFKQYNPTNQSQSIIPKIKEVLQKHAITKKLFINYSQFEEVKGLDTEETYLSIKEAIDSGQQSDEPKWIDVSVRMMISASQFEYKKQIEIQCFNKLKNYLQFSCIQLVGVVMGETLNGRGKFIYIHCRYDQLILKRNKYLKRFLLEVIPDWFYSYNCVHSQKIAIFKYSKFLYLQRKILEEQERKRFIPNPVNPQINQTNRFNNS
In words: EMSA; 100 mM KCl; EMSA: 10 mM Tris pH 7.5, 1 mM EDTA, 0.1 mM DTT, 5% glycerol, 0.010 mg/ml BSA, 100 mM KCl (or 100 mM LiCl to limit G4), 4 nM probe, RT. The settings on record: protein: recombinant; tags: N-terminal His; label: 32P (5' PNK); mixed G4 (100 mM KCl). In general terms: Mobility shift assays separate free from complexed probe on a gel.

Series [2] addresses T1, His-Lia3. Briefly: competition; 5X/20X vs G4-M1 probe; EMSA: 10 mM Tris pH 7.5, 1 mM EDTA, 0.1 mM DTT, 5% glycerol, 0.010 mg/ml BSA, 100 mM KCl (or 100 mM LiCl to limit G4), 4 nM probe, RT. The settings on record: protein: recombinant; tags: N-terminal His; parallel intermolecular G4, 4 strands (100 mM KCl).
In series [3] the target is T2, MBP-Lia3 (Tetrahymena thermophila, UniProt A3F815 1-322).
T2 sequence: T1 sequence
In words: competition; excess vs G4-M1 probe; 400 nM protein; EMSA: 10 mM Tris pH 7.5, 1 mM EDTA, 0.1 mM DTT, 5% glycerol, 0.010 mg/ml BSA, 100 mM KCl (or 100 mM LiCl to limit G4), 4 nM probe, RT. The settings on record: protein: recombinant; tags: N-terminal MBP-TEV-His; linear, no G4.

By Kd is commonly meant the constant that tells how readily two partners part at equilibrium.

B1: G4 Tetrahymena telomere (structured_DNA)
DNA: TTGGGGTTGGGGTTGGGGTTGGGG
Regarding B1, in series [1], the Kd came to 11.5 µM.

B2: G4-M2 (structured_DNA)
DNA: TTCAAGACAAAAAAAGGGGGATGGGTTTCC
Take B2: the binding result in series [2] was “binds”.

B3: M1-C3 (C3G2 mutant) (ssDNA)
DNA: TTTATTAATCAAAAACCCGGTAAATAATAA
Consider B3, for which the binding result in series [3] was “no binding”.

The values above are taken from paper PMC4780704, “A Parallel G Quadruplex-Binding Protein Regulates the Boundaries of DNA Elimination Events of Tetrahymena thermophila”.
